# Reference: patent publication US20220281976A1 (Alector, published 2022)
# Substitutions are numbered along the chain they refer to.
# T1: mouse CD33 Fc fusion protein (mouse, UniProt Q63994 18-240, limits assumed)
# T1 construct: also called mCD33-Fc
# T1 sequence: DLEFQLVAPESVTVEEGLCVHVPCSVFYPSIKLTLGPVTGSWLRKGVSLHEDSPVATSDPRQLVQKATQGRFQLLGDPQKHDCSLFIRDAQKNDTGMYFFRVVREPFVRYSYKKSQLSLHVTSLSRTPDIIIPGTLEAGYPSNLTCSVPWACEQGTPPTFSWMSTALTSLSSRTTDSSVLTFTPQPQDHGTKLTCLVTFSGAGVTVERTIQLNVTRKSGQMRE
# B1: C-68 (antibody, V domains shown)
# VH: QVQLQESGPGLVKPSQTLSLTCTVSGGSISSGGYYWSWIRQHPGKGLEWIGNIYYSGSTYYNPSLKSRVTISVDTSKNQFSLKLSSVTAADTAVYYCARDLPNSGSPGSDYFDYWGQGTLVTVSS
# VL: EIVLTQSPGTLSLSPGERATLSCRASQSVSSSYLAWYQQKPGQAPRLLIYGASSRATGIPDRFSGSGSGTDFTLTISRLEPEDFAVYYCQQYDNYPPTFGGGTKVEIK
# notes: human IgG1
# B2: C-56 (antibody, V domains shown)
# VH: EVQLVESGGGLVQPGGSLRLSCAASGFTFSSYWMSWVRQAPGKGLEWVANIKQDGSEKYYVDSVKGRFTISRDNAKNSLYLQMNSLRAEDTAVYYCARDYGSVAGTPFDYWGQGTLVTVSS
# VL: DIQMTQSPSSLSASVGDRVTITCRASQSISSYLNWYQQKPGKAPKLLIYAASSLQSGVPSRFSGSGSGTDFTLTISSLQPEDFATYYCQQVLHTPLTFGGGTKVEIK
# notes: human IgG1
# B3: C-24 (antibody, V domains shown)
# VH: QVQLVQSGAEVKKPGASVKVSCKASGYTFTSYYMHWVRQAPGQGLEWMGVINPSGGSTSYAQKFQGRVTMTRDTSTSTVYMELSSLRSEDTAVYYCARESQYYDVHGMDVWGQGTTVTVSS
# VL: B2 VL with V91S, L92V, H93T, T94P
# notes: human IgG1
# B4: C-65 (antibody, V domains shown)
# VH: B3 VH
# VL: B2 VL with V91Q, L92Y, H93T, T94L, L96P
# notes: human IgG1
# B5: C-60 (antibody, V domains shown)
# VH: B3 VH
# VL: B2 VL with M4L, V91S, L92V, T94V, L96I
# notes: human IgG1
# B6: C-27 (antibody, V domains shown)
# VH: B3 VH
# VL: B2 VL with V91H, L92Y, H93D, T94I
# notes: human IgG1
# B7: C-59 (antibody, V domains shown)
# VH: B3 VH with S100G, Q101A, Y102N, V105S, H106S, M108L, V110A, T116L
# VL: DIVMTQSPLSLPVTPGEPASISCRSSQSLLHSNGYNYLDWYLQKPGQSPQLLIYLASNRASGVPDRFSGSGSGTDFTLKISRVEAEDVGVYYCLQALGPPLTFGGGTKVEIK
# notes: human IgG1
# B8: C-61 (antibody, V domains shown)
# VH: B3 VH
# VL: B1 VL with D93Y, N94G, Y95L, P97L
# notes: human IgG1
# B9: C-57 (antibody, V domains shown)
# VH: EVQLVESGGGLVQPGGSLRLSCAASGFTFSSYSMNWVRQAPGKGLEWVSYISSSSSTIYYADSVKGRFTISRDNAKNSLYLQMNSLRAEDTAVYYCARGGEGRPYLDIWGQGTMVTVSS
# VL: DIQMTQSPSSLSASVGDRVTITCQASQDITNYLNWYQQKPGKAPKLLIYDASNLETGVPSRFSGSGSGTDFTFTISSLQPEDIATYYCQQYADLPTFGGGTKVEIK
# notes: human IgG1
# B10: C-6 (antibody, V domains shown)
# VH: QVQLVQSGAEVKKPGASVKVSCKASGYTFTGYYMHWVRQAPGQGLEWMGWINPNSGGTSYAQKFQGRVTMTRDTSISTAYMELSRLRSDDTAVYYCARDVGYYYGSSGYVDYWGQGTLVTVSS
# VL: DIQMTQSPSSVSASVGDRVTITCRASQGIDSWLAWYQQKPGKAPKLLIYAASSLQSGVPSRFSGSGSGTDFTLTISSLQPEDFATYYCQQASAHPPWTFGGGTKVEIK
# notes: human IgG1
# Target: T2, human CD33 (human, UniProt P20138 18-364)
# T2 construct: CD33 on human primary dendritic cells, macrophages, monocytes and T cells and on CHO cells expressing recombinant human CD33; also called Siglec-3; hCD33
# T2 sequence (P20138 18-364): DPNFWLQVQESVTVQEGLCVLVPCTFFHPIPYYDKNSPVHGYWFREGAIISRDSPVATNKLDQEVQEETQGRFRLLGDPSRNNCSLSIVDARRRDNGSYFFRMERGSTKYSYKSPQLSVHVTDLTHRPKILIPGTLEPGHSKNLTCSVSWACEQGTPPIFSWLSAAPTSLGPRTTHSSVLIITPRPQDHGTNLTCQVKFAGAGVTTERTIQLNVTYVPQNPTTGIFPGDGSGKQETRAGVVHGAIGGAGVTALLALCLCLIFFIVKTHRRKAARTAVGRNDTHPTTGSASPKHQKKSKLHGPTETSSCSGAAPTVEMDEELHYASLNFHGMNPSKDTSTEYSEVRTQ
# Assay: flow cytometry, human primary dendritic cells;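 also: binding of anti-CD33 antibodies (10 ug/ml, 1 h on ice) to human primary dendritic cells, detected with a PE-labelled secondary antibody, reported as flow cytometry MFI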
# Protocol: (§1) Initial characterization of CD33 antibodies involved determining their ability to bind CD33 expressed on a CHO cell line, on human primary monocytes, human primary macrophages, human primary dendritic cells, and on human primary T cells. Cells were harvested, plated at 10⁶/ml in a 96 well plate, and incubated in 100 ul PBS containing 2% FBS, 2 mM EDTA and 10 ug/ml Mab and Fc blocking reagent for 1 hour in ice. Cells were washed twice and incubated in 100 ul PBS containing 2% FBS, 2 mM EDTA and 5 ug/ml PE-conjugated secondary antibody for 30 minutes on ice. Cells were washed twice in cold PBS and analyze by flow cytometry on a BD FACS Canto. Data analysis and calculation of MFI values was performed with FlowJo (TreeStar) software version 10.0.7.
row,Binder,DC MFI
1,B1,526
2,B2,1560
3,B3,1230
4,B4,1330
5,B5,1040
6,B6,1300
7,B7,1130
8,B8,1310
9,B9,1490
10,B10,1040

# Target: T3, human CD33 Fc fusion protein (human, UniProt P20138 18-259)
# T3 construct: also called hCD33-Fc; human CD33/Fc chimera (R&D Systems)
# T3 sequence (P20138 18-259 limits assumed): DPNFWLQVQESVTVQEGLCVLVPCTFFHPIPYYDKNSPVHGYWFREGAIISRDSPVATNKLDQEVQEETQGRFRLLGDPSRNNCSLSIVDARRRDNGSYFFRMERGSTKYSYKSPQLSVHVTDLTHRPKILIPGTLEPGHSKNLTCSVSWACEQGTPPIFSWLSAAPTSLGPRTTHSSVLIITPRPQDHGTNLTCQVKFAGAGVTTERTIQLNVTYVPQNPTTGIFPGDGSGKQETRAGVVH
# Assay: RBC adhesion to plate-bound CD33-Fc; antibody 1.0 ug/ml;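 also: red blood cells adhering to plate-coated CD33-Fc after 1 h antibody pretreatment, then 1 h at room temperature, bound cells read as peroxidase activity after lysis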
row,Binder,Percent RBC Binding to CD33 [%]
1,B1,10.1
2,B2,10.5
3,B3,8.98
4,B4,9.33
5,B5,12.9
6,B6,12.6
7,B7,10.7
8,B8,9.73
9,B9,10.6
10,B10,98.1

# Target: T2, human CD33
# Assay: flow cytometry, human primary macrophages;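 also: binding of CD33 antibodies at 10 µg/ml to human primary macrophages, 1 h on ice, detected with PE-labelled secondary antibody by flow cytometry, reported as MFI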
row,Binder,Macrophage MFI
1,B1,752
2,B2,846
3,B3,752
4,B4,852
5,B5,775
6,B6,602
7,B7,598
8,B8,797
9,B9,867
10,B10,871

# Target: T4, human monomeric His tagged CD33 protein (human, UniProt P20138 18-259)
# T4 construct: also called hCD33-His
# T4 sequence (P20138 18-259 limits assumed): as above
# Assay: ForteBio BLI or MSD-SET, IgG, monomeric antigen;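 also: BLI: antibodies captured on AHQ sensors, 100 nM antigen association 5 min, dissociation 5 min, 1:1 fit. MSD-SET: antigen fixed at 50 pM, antibody titrated, quadratic fit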
row,Binder,Kd [nM]
1,B1,30.9
2,B2,4.98
3,B3,6.95
4,B4,7.67
5,B5,9.33
6,B6,10.9
7,B7,9.16
8,B8,13.4
9,B9,7.67
10,B10,8.94

# Target: T3, human CD33 Fc fusion protein
# Assay: ForteBio BLI or MSD-SET, IgG, avid;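 also: Anti-CD33 IgG affinity by BLI, IgG captured on AHQ sensors with antigen in solution and a one-to-one kinetic fit, or by MSD solution equilibrium titration with quadratic fit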
row,Binder,Kd [nM]
1,B1,4.61
2,B2,1.1
3,B3,1.54
4,B4,1.62
5,B5,1.66
6,B6,1.67
7,B7,1.6
8,B8,2.06
9,B9,1.8
10,B10,2.83

# Target: T2, human CD33
# Assay: cell-based or functional assay
Binder,"Percent CD33 Surface Expression, DC % CD33 [%]","Percent CD33 Surface Expression, Monocyte % CD33 [%]","Percent CD33 Surface Expression, Macrophage % CD33 [%]"
B1,59.1,71.9,–
B2,19.7,41.6,40
B3,28.8,43.1,42.7
B4,26.9,31.2,44.5
B5,26.8,41.7,45.4
B6,37.8,39.1,46.3
B7,24.7,37.5,41.5
B8,22.8,38.3,50.8
B9,20.7,37.1,41.8
B10,83,91,98.6

# Target: T2, human CD33
# Assay: flow cytometry, human primary T cells;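 also: binding of anti-CD33 antibodies at 10 ug/ml to human primary T cells, 1 h on ice, detected with PE-labelled secondary antibody, read as flow cytometry MFI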
# Protocol: as §1
row,Binder,T cell MFI
1,B1,561
2,B2,230
3,B3,193
4,B4,216
5,B5,221
6,B6,414
7,B7,191
8,B8,242
9,B9,234
10,B10,46

# Target: T1, mouse CD33 Fc fusion protein
# Assay: ForteBio BLI or MSD-SET
row,Binder,binding result
1,B1,no binding (tested: 100 nM)
2,B2,no binding (tested: 100 nM)
3,B3,no binding (tested: 100 nM)
4,B4,no binding (tested: 100 nM)
5,B5,no binding (tested: 100 nM)
6,B6,no binding (tested: 100 nM)
7,B7,no binding (tested: 100 nM)
8,B8,no binding (tested: 100 nM)
9,B9,no binding (tested: 100 nM)
10,B10,no binding (tested: 100 nM)

# Target: T2, human CD33
# Assay: flow cytometry, human primary monocytes;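 also: binding of anti-CD33 antibodies at 10 ug/ml to human primary monocytes, 1 h on ice, detected by PE-labelled secondary antibody, flow cytometry readout as mean fluorescence intensity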
# Parameters: reference not given here
row,Binder,Monocyte MFI
1,B1,115
2,B2,136
3,B3,165
4,B4,161
5,B5,151
6,B6,113
7,B7,140
8,B8,122
9,B9,162
10,B10,131

# Target: T3, human CD33 Fc fusion protein
# Assay: RBC adhesion to plate-bound CD33-Fc; antibody 0.5 ug/ml;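 also: Plate-coated CD33-Fc preincubated 1 h with antibody, then red blood cells added for 1 h at room temperature, adherent cells lysed and quantified via peroxidase activity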
# Protocol: Briefly, 5 ug/ml CD33-Fc was coated overnight at RT in 96 well Immunolon plates, then washed with PBS, blocked for one hour with binding buffer (PBS containing %0.25 BSA 1 mM CaCl₂). CD33 antibodies (0.5 ug/ml or 1.0 ug/ml) or Fabs (25 ug/ml) were bound for one hour at RT with gentle rocking. After removal of unbound antibody, red blood cells were added to each well at a concentration of 3.0×10⁶ cells per ml and incubated at RT for one hour. Unbound RBCs were then carefully washed off 3× with PBS, and water was added to each well for hypotonic lysis of bound RBCs. The plate was transferred to −80° C. for 10 minutes, followed by 37° C. for 15 minutes. Bound RBCs were detected by peroxidase activity, followed by 2N sulfuric acid to stop the reaction.
row,Binder,Percent RBC Binding to CD33 [%]
1,B1,31.6
2,B2,15.7
3,B3,13
4,B4,11.5
5,B5,10.7
6,B6,15.9
7,B7,18.2
8,B8,13.3
9,B9,15.8
10,B10,102
